Assay results taken from PMC9234707 (2022).

B1: Nodal (protein)
chain 1: DRSQLCRKVKFQVDFNLIGWGSWIIYPKQYNAYRCEGECPNPVGEEFHPTNHAYIQSLLKRYQPHRVPSTCCAPVKTKPLSMLYVDNGRVLLDHHKDMIVEECGCL
chain 2: B1 chain 1
B2: ActivinB (protein)
chain 1: GLECDGRTNLCCRQQFFIDFRLIGWNDWIIAPTGYYGNYCEGSCPAYLAGVPGSASSFHTAVVNQYRMRGLNPGTVNSCCIPTKLSTMSMLYFDDEYNIVKRDVPNMIVEECGCA
chain 2: B2 chain 1
B3: BMP15 (protein)
chain 1: PENNQCSLHPFQISFRQLGWDHWIIAPPFYTPNYCKGTCLRVLRDGLNSPNHAIIQNLINQLVDQSVPRPSCVPYKYVPISVLMIEANGSILYKEYEGMIAESCTCR
chain 2: B3 chain 1
B4: BMP10 (protein)
chain 1: AKGNYCKRTPLYIDFKEIGWDSWIIAPPGYEAYECRGVCNYPLAEHLTPTKHAIIQALVHLKNSQKASKACCVPTKLEPISILYLDKGVVTYKFKYEGMAVSECGCR
chain 2: B4 chain 1
B5: GDF11 (protein)
chain 1: GLDCDEHSSESRCCRYPLTVDFEAFGWDWIIAPKRYKANYCSGQCEYMFMQKYPHTHLVQQANPRGSAGPCCTPTKMSPINMLYFNDKQQIIYGKIPGMVVDRCGCS
chain 2: B5 chain 1

molecular target: ACVR2A (Homo sapiens (Human), UniProt P27037); test: SPR, receptor-Fc dimer captured (avidity), single 80 nM injections
Sequence (P27037 26-118): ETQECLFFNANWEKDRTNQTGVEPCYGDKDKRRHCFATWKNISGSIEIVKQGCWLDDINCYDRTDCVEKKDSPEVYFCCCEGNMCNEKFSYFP

Binder | Kd [nM]
B1 | > 80
B2 | 0.053
B3 | > 80
B4 | 1
B5 | 0.052
